Measurements taken from patent US20070202121A1 (University of California, published 2007).

Molecular target: T1, H-2 D^b MHC class I molecule (mouse, UniProt P01887 21-119; P01899 25-362, limits assumed)
T1 construct: whole, on cells
T1 sequence (MHC heavy, looked up): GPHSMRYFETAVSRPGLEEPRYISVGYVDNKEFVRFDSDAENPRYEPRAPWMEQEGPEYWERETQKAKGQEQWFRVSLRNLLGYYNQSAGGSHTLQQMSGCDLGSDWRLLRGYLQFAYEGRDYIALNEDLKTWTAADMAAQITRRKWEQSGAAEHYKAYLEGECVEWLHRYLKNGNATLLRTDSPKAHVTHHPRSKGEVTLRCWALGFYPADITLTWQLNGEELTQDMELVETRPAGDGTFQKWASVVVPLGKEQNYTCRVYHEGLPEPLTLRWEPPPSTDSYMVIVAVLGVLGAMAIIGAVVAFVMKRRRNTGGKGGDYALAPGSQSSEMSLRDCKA
T1 sequence (b2m, looked up): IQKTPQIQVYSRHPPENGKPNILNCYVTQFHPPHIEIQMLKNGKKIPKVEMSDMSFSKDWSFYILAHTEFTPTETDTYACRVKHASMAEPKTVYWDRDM
Assay: synthetic peptide pulsed on L cells expressing H-2 D^b, read by T cell hybridoma activation

B1: SPAS-1 peptide STHVNHLHC (peptide)
peptide: STHVNHLHC
notes: Encoded by nucleotides 730 to 756 of the SPAS-1 (T) cDNA from TRAMP-C2 tumor cells
binding result: binds
